Experimental data published in patent publication US6828116.

System: T1, Cy5-Ala-Ala-Phe-Phe-Ala-Ala-Lys-Compound III
T1 sequence: AAFFAAK

## pepsin
  Cy5 fluorescence intensity over time (FRET quench release on cleavage), with and without pepsin: Protease-catalysed hydrolysis of the substrate removes this quenching, restoring the Cy5 fluorescence.
